# Residue numbers refer to the chain shown, from its start. Where no end group is shown, it is not given here. The star is where a group is joined. 125I = radioactive iodine-125 label on the tyrosine, [125I]*
# B1: [125I] Y10-hNPS (monoiodinated human Y10-NPS radioligand) (peptide)
# peptide: SFRNGVGTGY(125I)KKTSFQRAKS
# modifications: also: monoiodinated with 125I (chloramine T)
# notes: Human NPS in which the residue at position 10 is replaced by tyrosine, then radioiodinated; also called Y10-NPS; the radioligand
# B2: human Neuropeptide S (hNPS) (peptide)
# peptide: SFRNGVGTGMKKTSFQRAKS-OH
# notes: 20-residue mature peptide with free C-terminus (-OH); also called human NPS; NPS 1-20
# Tests used:
# human NPSR = target: T1, human NPSR (Homo sapiens, UniProt Q6W5P4); test: Mobilization of intracellular Ca2+ (FLIPR) in HEK 293T cells stably expressing human NPSR; format: cell-based; conditions: for EC50: HEK 293T cells stably expressing human NPSR, read-out: EC50 for mobilization of [Ca2+]i
# T1 construct: This receptor protein is identical to the NPSR that we have studied extensively for its pharmacology; expressed in transfected cells
# T1 sequence (Q6W5P4 1-371): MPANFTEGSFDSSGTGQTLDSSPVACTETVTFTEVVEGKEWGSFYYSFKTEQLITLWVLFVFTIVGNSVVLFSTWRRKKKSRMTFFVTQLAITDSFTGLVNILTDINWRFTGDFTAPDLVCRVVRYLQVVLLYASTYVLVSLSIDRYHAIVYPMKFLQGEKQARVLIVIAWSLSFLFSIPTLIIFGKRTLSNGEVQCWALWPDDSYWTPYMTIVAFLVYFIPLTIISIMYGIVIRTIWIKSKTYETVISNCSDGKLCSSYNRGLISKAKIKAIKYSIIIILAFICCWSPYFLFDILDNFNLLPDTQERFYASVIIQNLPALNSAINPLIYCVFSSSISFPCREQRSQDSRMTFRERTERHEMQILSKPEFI
# Method: Cell lines stably expressing human NPSR in both Chinese hamster ovary (CHO) cells and human embryonic kidney 293 T cells (HEK 293T) were used to define the pharmacological characteristics of NPS. […] HEK 293T cells and CHO dhfr(−) cells were transfected with the human NPSR cDNA cloned into pcDNA 3.1(+) using LipofectAmine. Stable clones were selected with 800 mg/l G418 and tested for mobilization of intracellular Ca^2+ with 100 nM NPS (generous gift of Phoenix Pharmaceuticals, Belmont, Calif.). Changes in intracellular Ca^2+ were measured in a fluorometric imaging plate reader system (FLIPR, Molecular Devices) as described before(Saito et al., 1999). Dose response curves for agonist activation were calculated from peak fluorescence values of triplicate incubations and EC50 values were calculated with Prism software (GraphPad, San Diego, Calif.).
# rodents = conditions: cited from earlier work
# [1] = single i.c.v. injection; cited from earlier work
# NPSR WT = target: T2, NPSR WT (Homo sapiens, UniProt Q6W5P4); test: Intracellular Ca2+ mobilization (FLIPR) in HEK 293 cells stably expressing NPSR WT; format: cell-based; conditions: for agonist activity, Ca2+ mobilization: individual HEK 293 clone; for agonist potency compared to the human peptide: Ca2+ mobilization
# T2 construct: The primary structure of the wildtype NPSR (NPSR WT) is identical to isoform A of GPRA; expressed in transfected cells
# T2 sequence (Q6W5P4 1-371): T1 sequence (Q6W5P4 1-371)
# Method: (§1) Changes of agonist-induced intracellular Ca^2+ were measured using the FLIPR technology as described before (5, 6). NPS and truncated NPS peptides were a gift from Phoenix Pharmaceuticals (Belmont, Calif.). Dose-response curves were calculated using GraphPad Prism (Graph Pad, San Diego). Mean EC50 values of populations of stable clones expressing either wildtype or mutant NPSR were compared using unpaired t-test and p<0.05 was considered significant.
# (§2) Two cells lines expressing similar levels (measured by radioligand binding; see below) of either NPSR WT or NPSR Ile were chosen for detailed analyses of pharmacological parameters. […] In order to investigate whether this tenfold increase in agonist potency at NPSR lie was a general property of the receptor protein we compared a large number of stable clones expressing either NPSR WT or NPSR Ile^107 by establishing dose-response curves for each construct and calculating mean EC50 values for the populations.
# NPSR Ile^107 = target: T3, NPSR Ile^107 (Homo sapiens, UniProt Q6W5P4, N107I); test: Intracellular Ca2+ mobilization (FLIPR) in HEK 293 cells stably expressing NPSR Ile107; format: cell-based; conditions: for agonist activity, Ca2+ mobilization: individual HEK 293 clone; for agonist potency compared to the human peptide: Ca2+ mobilization
# T3 construct: The Ile^107 isoform of NPSR was generated by PCR using synthetic oligonucleotides and the Quik Change Site-Directed Mutagenesis kit from Stratagene; expressed in transfected cells
# T3 sequence (Q6W5P4 1-371 N107I): T1 sequence (Q6W5P4 1-371) with N107I
# Method: as §1, §2
# [2] = target: human Neuropeptide S receptor, wildtype (NPSR WT) (human) (UniProt Q6W5P4); test: cell-based or functional assay
# [3] = target: T4, human Neuropeptide S receptor, wildtype (NPSR WT) (human, UniProt Q6W5P4 1-371); test: cell-based or functional assay
# T4 sequence: T1 sequence (Q6W5P4 1-371)
# [4] = target: T4, human Neuropeptide S receptor, wildtype …; test: saturation radioligand binding to intact CHO cells stably expressing hNPSR
# Method: (§3) The monoiodinated form of Y^10-NPS was used as a radioligand in receptor binding experiments. […] No specific binding was detected in mock-transfected CHO cells.
# (§4) CHO cells stably expressing human NPSR were seeded into 24-well plates and cultured for 48 hours. […] Nonspecific binding was determined in the presence of 1 µM unlabeled human NPS. The binding assay was carried out as described (Sakurai et al., 1998). In brief, cells were washed with PBS first and then incubated with radioligand with or without unlabeled NPS peptide in DMEM medium containing 0.1% bovine serum albumin at 20° C. for 1.5 h. Cells were washed 5 times with cold PBS and lysed with 1 N NaOH. Bound radioactivity was counted in a MicroBeta liquid scintillation counter (EG&G Wallac, Gaithersburg, Md.) and corrected for counting efficiency. Data from triplicate incubations were analyzed using PRISM.
# [5] = target: T4, human Neuropeptide S receptor, wildtype …; test: saturation binding of [125I] Y10-NPS to stable clones, intact cells
# [6] = target: T5, human Neuropeptide S receptor Ile107 isoform (NPSR Ile107) (human, UniProt Q6W5P4 1-371); test: as above
# T5 construct: also called NPSR lie; Asn107Ile variant
# T5 sequence: T1 sequence (Q6W5P4 1-371) with N107I
# [7] = target: T4, human Neuropeptide S receptor, wildtype …; test: saturation binding of [125I] Y10-NPS to stable clones, intact cells, average of n=4 clones
# [8] = target: T5, human Neuropeptide S receptor Ile107 …; test: as above
# [9] = target: human Neuropeptide S receptor C-terminal splice variant (NPSR C-alt) (human), Q6W5P4; test: cell-based or functional assay
# [10] = target: T5, human Neuropeptide S receptor Ile107 …; test: cell-based or functional assay
# [11] = target: T4, human Neuropeptide S receptor, wildtype …; test: displacement of 0.15 nM [125I] Y10-NPS from CHO cells stably expressing hNPSR by unlabeled human NPS
# Method: as §3, §4
molecule,measurement,setting,value
H-SFRNGVGTGYKKTSFQRAKS-OH [Human Y^10-NPS],agonist activity,"human NPSR; human NPSR, Ca2+ mobilization",full agonist activity
"Hcrt/Ox: neuropeptide hypocretin 1/orexin A, literature comparison (QPLPDCCRQKTCSCRLYELLHGAGNHAAGILTL; ends and bridges not checked; cysteine pairing not given here; UniProt O43612 34-66, looked up)",effect on anxiety-like behavior,rodents,no effect
same,duration of arousal,[1],2 to 3 h
"NPS 1-10: human NPS fragment, residues 1-10, after deletion of the two lysines at positions 11 and 12 (SFRNGVGTGM)","agonist activity, Ca2+ mobilization",NPSR WT,full agonist activity
same,"agonist activity, Ca2+ mobilization",NPSR Ile^107,full agonist activity
"NPS 1-12: carboxy-terminally truncated fragment of human NPS, residues 1-12 (SFRNGVGTGMKK)",antagonist activity against activation by NPS 1-20,NPSR WT,failed to block activation
same,"agonist activity, Ca2+ mobilization",NPSR WT,almost completely lost agonist activity
same,antagonist activity against activation by NPS 1-20,NPSR Ile^107,failed to block activation
same,"agonist activity, Ca2+ mobilization",NPSR Ile^107,"full, but weakly potent, agonist"
NPS 4-20: human NPS fragment with the three amino-terminal amino acids deleted (NGVGTGMKKTSFQRAKS),"agonist activity, Ca2+ mobilization",NPSR WT,completely abolished agonist activity
same,"agonist activity, Ca2+ mobilization",NPSR Ile^107,completely abolished agonist activity
SFRNGVGSGAKKTSFRRAKQ [mouse NPS],agonist potency compared to the human peptide,NPSR WT,slightly more potent
same,EC50,human NPSR,3 ± 1.3 nM
same,agonist potency compared to the human peptide,NPSR Ile^107,slightly more potent
SFRNGVGSGVKKTSFRRAKQ [rat NPS],agonist potency compared to the human peptide,NPSR WT,slightly more potent
same,EC50,human NPSR,3.2 ± 1.1 nM
same,agonist potency compared to the human peptide,NPSR Ile^107,slightly more potent
mouse Neuropeptide S (from UniProt P0C0P8 70-89),"EC50 for mobilization of [Ca2+]i, HEK 293T cells stably expressing human NPSR",[2],3 nM
rat Neuropeptide S (from UniProt P0C0P7 70-89),"EC50 for mobilization of [Ca2+]i, HEK 293T cells stably expressing human NPSR",[2],3.2 nM
SFRNGVGTGYKKTSFQRAKS [Human Y10-NPS (unlabeled)],"EC50, agonist activity (Ca2+ mobilization, data not shown)",[3],6.7 nM
B1,Kd,[4],0.33 nM
same,Kd,[5],0.2 to 0.45 nM
same,Kd,[6],0.17 to 0.4 nM
same,Kd,[7],0.347 nM
same,Kd,[8],0.403 nM
B2,"EC50, CRE-luciferase reporter, transiently transfected HEK 293 cells",[9],146 nM
same,"EC50, CRE-luciferase reporter, transiently transfected HEK 293 cells",[3],76.6 nM
same,"EC50, MAPK phosphorylation, stable HEK cells",[3],1.23 nM
same,"EC50, cAMP accumulation, stable HEK clone",[3],31.9 nM
same,"EC50, increase in intracellular Ca2+ in cells stably expressing NPSR WT",[3],5 to 10 nM
same,"EC50, intracellular free Ca2+, single stable HEK 293 clone",[3],12.4 nM
same,"EC50 for mobilization of [Ca2+]i, HEK 293T cells stably expressing human NPSR",[3],9.4 nM
same,"mean EC50, NPS-induced CRE-luciferase reporter gene expression, n=7 stable HEK clones",[3],45.1 nM
same,"mean EC50, NPS-induced mobilization of intracellular Ca2+, n=16 stable clones",[3],13 nM
same,"EC50, CRE-luciferase reporter, transiently transfected HEK 293 cells",[10],17.3 nM
same,"EC50, MAPK phosphorylation, stable HEK cells",[10],0.32 nM
same,"EC50, cAMP formation, stable HEK clone",[10],3.45 nM
same,"EC50, intracellular free Ca2+, single stable HEK 293 clone",[10],1.4 nM
same,"mean EC50, NPS-induced CRE-luciferase reporter gene expression, n=21 stable HEK clones",[10],0.63 nM
same,"mean EC50, NPS-induced mobilization of intracellular Ca2+, n=21 stable clones",[10],1.01 nM
same,IC50,[11],0.42 nM

# From patent US9012407B2, “Therapies which act on neuropeptide S receptors” (The Regents of the University of California, priority 2004, dated 2015)
